For the test, the target named is T1, CD25 on human anaplastic large cell lymphoma Karpas-299 cells (human, UniProt P01589 22-272).
T1 construct: whole, on cells; Endogenous antigen on the cell line
T1 sequence (looked up): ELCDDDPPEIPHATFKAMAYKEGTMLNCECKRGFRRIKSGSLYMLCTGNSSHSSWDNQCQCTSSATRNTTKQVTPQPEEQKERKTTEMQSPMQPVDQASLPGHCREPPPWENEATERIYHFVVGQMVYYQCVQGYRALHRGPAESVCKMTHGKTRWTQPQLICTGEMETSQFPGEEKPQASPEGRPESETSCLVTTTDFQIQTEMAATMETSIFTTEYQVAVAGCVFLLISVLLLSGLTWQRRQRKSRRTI
Description: flow cytometry, serial dilution of antibody on Karpas-299 wt, ADCR and PBDR cells, Alexa Fluor 488 anti-human Fc secondary. The protocol: The cells were then washed and incubated with a F(ab′)2-Goat anti-Human IgG Fc Secondary Antibody conjugated to Alexa Fluor 488. After incubation for 1 hour on ice in the dark the cells were washed and run on a Fortessa X20 flow cytometer, and the mean fluorescence intensity (MFI) determined using the B530/30 laser/filter.
A general note: A flow cytometer gives signals particle by particle.

The text below walks through data of patent US20220347309A1 (ADC THERAPEUTICS, published 2022).

B1: HuMax-TAC mAb (antibody, V domains shown)
VH: QVQLVQSGAEVKKPGSSVKVSCKASGGTFSRYIINWVRQAPGQGLEWMGRIIPILGVENYAQKFQGRVTITADKSTSTAYMELSSLRSEDTAVYYCARKDWFDYWGQGTLVTVSS
VL: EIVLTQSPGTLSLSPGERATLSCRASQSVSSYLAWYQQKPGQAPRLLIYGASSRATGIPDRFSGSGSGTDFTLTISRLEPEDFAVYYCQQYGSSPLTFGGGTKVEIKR
notes: also called AB12; CD25 antibody
For the molecule B1, the binding result is given as “binds”.
